Measured values as given in patent US20260209374A1 (ENOSI THERAPEUTICS, published 2026).
Where “and” joins values, the source holds several entries; their conditions need not be identical. Identical values can stand only once.

Key:
[1] = molecular target: T1, TNFR1 on the cells of the TNF-dependent bioassays (THP1 cells in Examples 4 and 6) (human, UniProt P19438 30-455); test: cell-based or functional assay
T1 sequence: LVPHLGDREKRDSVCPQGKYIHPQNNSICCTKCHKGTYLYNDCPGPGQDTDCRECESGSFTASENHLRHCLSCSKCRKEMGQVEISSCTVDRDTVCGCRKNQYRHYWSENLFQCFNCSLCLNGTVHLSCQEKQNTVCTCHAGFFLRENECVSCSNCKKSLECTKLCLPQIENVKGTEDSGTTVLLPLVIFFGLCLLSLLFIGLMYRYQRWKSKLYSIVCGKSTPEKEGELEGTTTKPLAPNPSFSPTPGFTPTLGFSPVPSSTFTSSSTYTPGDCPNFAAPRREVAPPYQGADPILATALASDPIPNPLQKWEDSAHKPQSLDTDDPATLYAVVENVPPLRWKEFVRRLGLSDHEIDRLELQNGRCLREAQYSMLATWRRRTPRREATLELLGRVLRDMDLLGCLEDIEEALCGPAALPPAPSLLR

human soluble TNFR1 [2] = molecular target: T2, human soluble TNFR1 (human, UniProt P19438 30-211); test: SPR; VHH-Fc captured by anti-human IgG (Fc) antibody on CM5 sensor chip, human soluble TNFR1 as analyte
T2 construct: also called hTNFR1; hTNFR-1
T2 sequence: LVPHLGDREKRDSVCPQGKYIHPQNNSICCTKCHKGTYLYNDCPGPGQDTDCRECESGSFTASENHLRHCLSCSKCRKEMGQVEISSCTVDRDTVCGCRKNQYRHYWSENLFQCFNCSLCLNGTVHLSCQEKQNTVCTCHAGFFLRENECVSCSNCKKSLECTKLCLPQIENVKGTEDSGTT
Text: CM5 sensor chip (Cytiva #BR100530) was coated with an anti-human IgG (Fc) antibody (Cytiva #29234600) to capture the EN1206-BV and EN1208-BV. The human soluble TNFR1 was used as analyte for binding flow.

human soluble TNFR1 [3] = molecular target: T2, human soluble TNFR1; test: SPR; VHH-Fc captured on Series S Protein A sensor chip, human soluble TNFR1 as analyte (0.781-100 nM), 1:1 binding fit
Text: (§1) Series S Sensor Chip Protein A (Cytiva #29127556) was used to immobilize the Fc portion of the VHH/Fc proteins. The human soluble TNFR1 and TNFR2 are used for the SPR binding flow.

human soluble TNFR2 [4] = molecular target: T3, human soluble TNFR2 (human, UniProt P20333 23-257); test: SPR; VHH-Fc captured by anti-human IgG (Fc) antibody on CM5 sensor chip, TNFR2 as analyte
T3 construct: also called hTNFR2; TNF receptor type 2
T3 sequence: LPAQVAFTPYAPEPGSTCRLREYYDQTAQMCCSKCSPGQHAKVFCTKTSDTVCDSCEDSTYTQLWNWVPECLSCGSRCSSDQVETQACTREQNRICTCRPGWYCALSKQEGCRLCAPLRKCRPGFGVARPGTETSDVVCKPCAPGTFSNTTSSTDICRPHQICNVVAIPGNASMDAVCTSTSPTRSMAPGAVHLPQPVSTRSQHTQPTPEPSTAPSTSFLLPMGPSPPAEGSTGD

human soluble TNFR2 [5] = molecular target: T3, human soluble TNFR2; test: SPR; VHH-Fc captured on Series S Protein A sensor chip, human soluble TNFR2 as analyte
Text: as §1

[6] = molecular target: T4, Human TNFR1/CD120a protein, His & Avi tag (human, UniProt P19438 30-211); test: BLI, Octet RED96; TNFR1-His-Avi immobilised on anti-penta-His (HIS1K) biosensor, EN1206-mv 0.412-100 nM
T4 construct: Captured on HIS1K or streptavidin biosensors; also called TNFR1-His-avi tag protein; immobilized soluble human TNFR1; not shown: His tag and Avi tag
T4 sequence: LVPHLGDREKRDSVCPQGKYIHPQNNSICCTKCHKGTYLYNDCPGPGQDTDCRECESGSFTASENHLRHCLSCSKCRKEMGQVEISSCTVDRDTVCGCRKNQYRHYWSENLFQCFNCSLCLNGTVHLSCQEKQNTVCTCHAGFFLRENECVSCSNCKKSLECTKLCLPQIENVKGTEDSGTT
Experimental: An Octet instrument RED96 was used for the assay. Octat anti-penta His biosensor (HIS1K) and Octet Streptavidin (SA) biosensor were used to immobilize the TNFR1-His-avi tag protein. […] Octet RED96 was used to measure the binding affinity of EN1206-mv and EN1208-bv. […] A dose-dependent binding of EN1208-bv to the immobilized TNFR1 on SA chip was detected within the concentration range of 3.7 nm to 300 nM (FIG. 11B).
The experiments started with the determination of the binding specificity and affinity of EN1206 and EN1208 to the immobilized human soluble TNFR1. A concentration-dependent binding of EN1206 and EN1208 to the TNFR1 was observed, respectively (Table 15, FIGS. 11A-11B). Due to a lack of detectable dissociation of EN1208-BV after its binding to the immobilized TNFR1 within the dissociation assay time frame (~5 min), the on-rate (ka) and off-rate (kd) could not be calculated. Thus, an affinity (KD) for EN1208 was estimated (Table 15).

[7] = molecular target: T5, extracellular domain of TNFR-1 (Example 4) (UniProt P19438 30-211, limits assumed); test: SPR (Biacore method)
T5 construct: extracellular domain; also called TNFR1 extracellular domain
T5 sequence (looked up): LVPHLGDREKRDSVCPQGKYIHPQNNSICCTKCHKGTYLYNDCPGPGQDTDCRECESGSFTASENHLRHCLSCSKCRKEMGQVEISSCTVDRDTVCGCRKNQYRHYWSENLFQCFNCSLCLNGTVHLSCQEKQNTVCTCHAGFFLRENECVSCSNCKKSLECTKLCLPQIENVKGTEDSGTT

[8] = molecular target: T1, TNFR1 on the cells of the TNF-dependent …; test: cell-based or functional assay; remark: listed apart in the source
human soluble TNFR1 [9] = molecular target: T2, human soluble TNFR1; test: SPR (format not described)
[10] = molecular target: T5, extracellular domain of TNFR-1 (Example …); test: competition assay, Vhh inhibition of TNF-α binding to TNFR1 extracellular domain; competitor TNF-α
Experimental: Competition assays of Vhh inhibition of TNF-α binding to TNFR1 extracellular domain also were performed as described in Richter et al. (2019).

Binder	fold improvement over Etanercept in inhibition of IL-8 expression, TNF-stimulated THP1 cells (qPCR) [1]	fold improvement over Etanercept in inhibition of TNF expression, TNF-stimulated THP1 cells (qPCR) [1]	relative gene expression of IL8/CXCL8 (qPCR, THP1 cells, TNF 100 ng/ml), 1 nM inhibitor, against baseline [1]	relative potency against 206dAb, suppression of TNF-induced expression of IL8/CXCL8 in THP1 cells, 1 nM [1]	relative potency against 206dAb, suppression of TNF-induced expression of TNF in THP1 cells, 1 nM [1]	Kd (human soluble TNFR1 [3])	Kd [7]	TNF Dependent Bioassay (IC50): VCAM [8]	further results
EN-1206-Fc-BV (Fc fusion, Homodimeric, bivalent; In some paragraphs 'EN1206' also means the HSA fusion or the dAb itself; also called EN1206-BV; EN1206 bivalent) EVQLLESGGGLVQPGGSLRLSCAASGFTFAHETMVWVRQAPGKGLEWVSHIPPDGQDPFYADSVKGRFTISRDNSKNTLYLQMNSLRAEDTAVYHCALLPKRGPWFDYWGQGTLVTVSSDKTHTCPPCPAPEAAGGPSVFLFPPKPKDTLYITREPEVTCVVVDVSHEDPEVKFNWYVDGVEVHNAKTKPREEQYNSTYRVVSVLTVLHQDWLNGKEYKCKVSNKALGAPIEKTISKAKGQPREPQVYTLPPSRDELTKNQVSLTCLVKGFYPSDIAVEWESNGQPENNYKTTPPVLDSDGSFFLYSKLTVDKSRWQQGNVFSCSVMHEALHNHYTQKSLSLSPGK	5.9 fold	15 fold	1.75 fold	7 fold	6.5 fold	0.185 nM			Kd (human soluble TNFR1 [2]): 1.49 nM; binding result (human soluble TNFR2 [4]): no binding
EN-1206-Fc-MV (Fc fusion, One-armed (monovalent) knob-into-hole heterodimer; the leader is cleaved on expression; also called EN1206-MV; EN1206-mv) chain 1: EVQLLESGGGLVQPGGSLRLSCAASGFTFAHETMVWVRQAPGKGLEWVSHIPPDGQDPFYADSVKGRFTISRDNSKNTLYLQMNSLRAEDTAVYHCALLPKRGPWFDYWGQGTLVTVSSDKTHTCPPCPAPEAAGGPSVFLFPPKPKDTLYITREPEVTCVVVDVSHEDPEVKFNWYVDGVEVHNAKTKPREEQYNSTYRVVSVLTVLHQDWLNGKEYKCKVSNKALGAPIEKTISKAKGQPREPQVYTLPPSRDELTKNQVSLWCLVKGFYPSDIAVEWESNGQPENNYKTTPPVLDSDGSFFLYSKLTVDKSRWQQGNVFSCSVMHEALHNHYTQKSLSLSPGK chain 2: DKTHTCPPCPAPEAAGGPSVFLFPPKPKDTLYITREPEVTCVVVDVSHEDPEVKFNWYVDGVEVHNAKTKPREEQYNSTYRVVSVLTVLHQDWLNGKEYKCKVSNKALGAPIEKTISKAKGQPREPQVYTLPPSRDELTKNQVSLSCAVKGFYPSDIAVEWESNGQPENNYKTTPPVLDSDGSFFLVSKLTVDKSRWQQGNVFSCSVMHEALHNHYTQKSLSLSPGK	10.6 fold	6.8 fold	1.75 fold	9.3 fold	9 fold	0.388 nM			binding result (human soluble TNFR2 [5]): no binding; Kd [6]: 0.314 nM; koff [6]: 0.000284 s⁻¹; kon [6]: 903000 M⁻¹ s⁻¹
Vhh-2 (VHH, not shown: small tags and cut ends) VHH: EVQLLESGGGLVQPGGSLRLSCAASGFTFSQYRMHWVRQAPGKSLEWVSSIDTRGSSTYYADPVKGRFTISRDNSKNTLYLQMNSLRAEDTAVYYCAKAVTMFSPFFDYWGQGTLV							1000 nM	3 nM	
Vhh-4 (VHH) VHH: EVQLLESGGGLVQPGGSLRLSCAASGFTFAHETMVWVRQAPGKGLEWVSHIPPDGQDPFYADSVKGRFTISRDNSKNTLYLQMNSLRAEDTAVYHCALLPKRGPWFDYWGQGTLVTVSS							0.00066 nM	0.3 nM	Kd (human soluble TNFR1 [9]): 0.407 nM and 0.3 nM to 0.5 nM (2×); IC50 [10]: ~1 nM
EN-1000-206 (VHH) VHH: EVQLLESGGGLVQPGGSLRLSCAASGFTFAHETMVWVRQAPGKGLEWVSHIPPDGQDPFYADSVKGRFTISRDNSKNTLYLQMNSLRAEDTAVYHCALLPKRGPWFDYWGQGTLVTVSS			8 fold						
